From the DeepSol protein solubility set

assay: soluble on expression in E. coli; label from the status in PepcDB or PDB records

Sequence | soluble on expression in E. coli
MTKLHDISEHEKAIDFSIYLDSLPQYQHLASQDESHRHRALGIYSDFLSEENKSKRAALQNYKNYISLTERDPNQLAYPELQETRIDAVFSPDFMGSFAKSNGRHEETPMDGPGGYDMRSYLPYQTAPSGSLGNISTASSSCSSPPGTPAPSGKGRSPQAGGKMTSSGKGKKRLDKDSDEYRQRRERNNLAVRKSRDKAKMRNLETQHKVLELAAENDRLQKRVEQLSRELATLRNLLSATGQC | not soluble
MSLKAVFVYEPLGNENVKVEEVSEPKKEQGKVIIEVKKAGLNPIDYNVINGKIVYRLNPLPHIPGSEVYGIVKEDSGSFKKGERVIVYNRIFDGTCSQCISGNEHLCENGGIWGVVSNGGYSQLVQIDEKNVFRVPEDASDELAASIGVAALTSFRAIRISGCSPGRSILIYGASGNTGMFAVQLASMMGCDVYAVSRKDWIESFGAIEVFRPDNIPPDMKFDIIINPLGSLFWGDALKHLRTRGILVSFGVLTGREGSIDIADLYTGEKKILGSTGGTREDLRGLLEFMKTHELRVKIAREFKINEIKDALKYYSETHDGRILISMREGHHHHHH | not soluble
GSSHHHHHHMGNVFDYEDIQLIPAKCIVNSRSECDTTVTLGKHKFKLPVVPANMQTIIDERIATYLAENNYFYIMHRFQPEKRISFIRDMQSRGLIASISVGVKEDEYEFVQQLAAEHLTPEYITIDIAHGHSNAVINMIQHIKKHLPESFVIAGNVGTPEAVRELENAGADATKVGIGPGKVCITKIKTGFGTGGWQLAALRWCAKAASKPIIADGGIRTNGDVAKSIRFGATMVMIGSLFAGHEESPGETIEKDGKLYKEYFGSASEFQKGEKKNVEGKKMFVEHKGSLEDTLIEMEQDLQSSISYAGGTKLDSIRTVDYVVVKNSIFNGDKVY | soluble
MGSDKIHHHHHHMDTQRIKDDEDAIRSALTSLKTATGIPVTMFATVLQDNRLQITQWVGLRTPALQNLVIEPGVGVGGRVVATRRPVGVSDYTRANVISHEKDSAIQDEGLHSIVAVPVIVHREIRGVLYVGVHSAVRLGDTVIEEVTMTARTLEQNLAINSALRRNGVPDGRGSLKANRVMNGAEWEQVRSTHSKLRMLANRVTDEDLRRDLEELCDQMVTPVRIKQTTKLSARELDVLACVALGHTNVEAAEEMGIGAETVKSYLRSVMRKLGAHTRYEAVNAARRIGALP | not soluble
MGGVSDERLDLVNERDEVVGQILRTDPALRWERVRVVNAFLRNSQGQLWIPRRSPSKSLFPNALDVSVGGAVQSGETYEEAFRREAREELNVEIDALSWRPLASFSPFQTTLSSFMCVYELRSDATPIFNPNDISGGEWLTPEHLLARIAAGEAAKGDLAELVRRCYREEE | soluble
MLHCLDEFGNLKLKAIIDWQGVSTLPPGLDLSRLLMGCLSAHERRERGLEMLKLYHETFNQVLGKELFSFQELQDSYNLYYPMMAMALLPLVSSLAENSQVSEVEKAQIRFKTETKLVAMMEDLIEVHEYNLKHFPEILKG | not soluble
MKVPEAAISRLITYLRILEELEAQGVHRTSSEQLGELAQVTAFQVRKDLSYFGSYGTRGVGYTVPVLKRELRHILGLNRKWGLCIVGMGRLGSALADYPGFGESFELRGFFDVDPEKVGRPVRGGVIEHVDLLPQRVPGRIEIALLTVPREAAQKAADLLVAAGIKGILNFAPVVLEVPKEVAVENVDFLAGLTRLSFAILNPKWREEMMG | soluble
MSLQLADAQADLPYIHGFSAAEQARLVRQARFSEAMVYRDVDFSGVQKLLEVGCGVGAQTEILLRRFPDVGITGLDFSQRQLAVARQRLQGSPYHDRATLLHMDAEDLDFPPASFDGAFLCWILEHVHSPERVLAEVRRVLKPGARLYATEAMNATFFLAPYSANLQQYWLAFNDHQLSVGGDPFVGAKLGNILMRLGFRHVETKVKTWHLDSREPHRRQQVLDYWAELLLSAADQLIEAGRVDAELVDSMTRELRLLRSNPELVFFYSFMQASAVVEGHHHHHH | soluble
MAHHHHHHMPWATTLDLKATPPPTLCVTVSNTTDVLIIADMQVDFLTPGGSLHVKGGEALLDGINAVSSQLPFRYQVATQDWHPENHCSFVTHGGPWPPHCVQGSSGAQLHAGLHTHRINAVLRKGATQQADSYSAFVDDNGVSTGLAGLLHSIGARRVFVCGVAYDFCVFFTAMDARKNGFGVVLLEDLTAAVDDAAWSARAAELKEAGVVLLSSSALVAEGTET | soluble
MGSPLPFRLTCVWAGEPSMKKAIIFDCEFLCLEGSQRRFWCAAHDPDPVIAQIGAVKLGLEGGFPLLETYKVLISPVDRHGRRYAIDPFFTRLTGITEENIEAEGVPLQDALSSFDSFSEGAQCWSWGKDELNMMAISTYVAGIQPPMPACRFDNAVRLLLAAGMPVEDLAKTPSNSLADYYGVAHPPLQGHDALGDALSVSYALQHLLRSGKLKPEEFTLAAAAALEHHHHHH | not soluble
MQKYTIVDLNEKAEAELAAIAGELGIANAGSMPKQELIYKILDEQAISVAGVRKEKQKTTEDRHTERRKPGRPRKNAEEEAPESEDVAAAPAEPNDEEAQAKRKRGRPRKAAEEIAEETREDVQQLVALAAAEETNATEKESAGRKPAAKTSTASPAKAPAKALPRPAETTPRVAPSPPPTTPVSEPAKDDAKPETPAPPPAIESITTTPAAGAVDEGGARRLVFRHKNSSSVLDQVLPYSSPQPPQRPKPAGAPVGSSPIRQRQAAGVPTPRREPQQPLYNFDGILECM | not soluble
MPQLSRYSDEHVEQLLSELLSVLEKHKAPTDLSLMVLGNMVTNLINTSVAPAQRQAIANSFARALQSSISEDNAH | not soluble
SLKTPGYPDGPIAIYGDNIFLYSEPTAEEAARFDVVINCAREVSNPFEINKATRRPMSIAEPDTAVSTASFMTAWEFPQGDDSAETPTTPKALQFQEPEYIHIPWDHNTDIAPDLMDLCHVVDDRTKAGKRVLIHCQQGASRSASLIIAYGLFQRPELTVNDAYYAAQAKSQWISPNMKLMYSLQDFQKEVSTKRTAQPSNREG | soluble
VEQSANAFLLVNCNGVVEYVNPSFTAITQYSSEEVSGNKLSELPALENLNQLLLEANSSLTSSNSWQGEFKSRRKNLEPYWGQLSISKVYGDNRELTHYIGIYEDIT | not soluble
MSFRVSASSSVKPEKDIRIGLLGASGYTGAEIVRLLANHPHFQVTLMTADRKAGQSMESVFPHLRAQKLPTLVSVKDADFSTVDAVFCCLPHGTTQEIIKELPTALKIVDLSADFRLRNIAEYEEWYGQPHKAVELQKEVVYGLTEILREDIKKARLVANPGCYPTTIQLPLVPLLKANLIKHENIIIDAKSGVSGAGRGAKEANLYSEIAEGISSYGVTRHRHVPEIEQGLSDVAQSKVTVSFTPHLMPMIRGMQSTIYVEMAPGVRTEDLHQQLKTSYEDEEFVKVLDEGVVPRTHNVRGSNYCHMSVFPDRIPGRAIIISVIDNLVKGASGQALQNLNIMLGYPETTGLLHQPLFP | soluble
MADDKDVLRDVWFGRIPACFTLSPDETTEREAEPYYLLLPRVSYLTLVTDKVKKHFLKVMKAEDVEEMWFEHEGTPLKWHYPIGVLFDLHASNSALPWNVTVHFKNFPEQDLLHCSTNSVIEAHFMSCIKEADALKHKGQVINDMQKKDHKQLWMGLQNDKFDQFWAMNRKLMEYPTEEGGFRYIPFRIYQTMSDRPFIQTLFRPVSSEGQALTLGDLLKELFPAAIEDEPKKFQVMIHGIEPLLETPIQWLSEHLSHPDNFLHISIIPAPSD | not soluble
MDLHLTVDLKKTKTLIDLADQAHLIIEQTTKLPKKEAAILFLLIDNQLVALGLAEEKATYKEVSFDHSILLKPTWDTELAYLAQAFLDDAKESGLTLEATPTTVKIPKSAVATVTNYKETVTFILERFGYSLFKKPAPKKARPAKARHKWTKEVSQIPFYIDTRQSKATVFWQKRNEMLIKAGATMMPEAPLNKDGSVGFSARFGEKLRDERKGQFKDFVTTEDIVLKSVNEVGLFLYFAGTNSWLELVDENGKTLNEWTVVE | not soluble
LHRYSEVLGLPVICTADGKNLGTIKDIIFCPKEKSVVAFLIECKGYNRRKKVVFASDVLSLGRDALIVNDADDVRDLKKVLHRPEFKDKGDILGLPIYTKNGEDLGTAKDVLFDLKHGKIDGIEVSDGLLQDIVKGRSVLPLIGKVEFGEENILVDNEAVEEMMETGGGIKNLIEGNKKVQRKG | not soluble
MKQEFSSIQFKAALLAAGLVLQVPAHANDGTIVITGAITDTTCIIEDPSDPNHTKVVQLPKISKSALKVKGDQAGRTPFTISLRDCPADLGNGVKVYFEPGPTTNYATGDLKAYKLAYATNPKATPLNSIVAATPATGVEIRISNLDDSKIPMGVDVTNQRAQGFNPVEQTGDTNKRTVTMRYLASYVKADGDIQASAITTYVGFSVVYP | not soluble
MAHHHHHHMQYVERLFSAYGHVADVKIVFEGSVQFAEVMYNAVDDADSAIAALHHHYCASRNTPLVVLYHVRSPCISEYGRKVGREYAQAAALGRDPSYIPLEGFDENYPRTDVPPPPSDREIFEGARWNDSSGPAGEGRLHSY | not soluble
MSSTSRIMRPDDANIVGNVHGGTILKMIEEAGCIIGTRHCNTQSGDRCLAALARVERTDFLHPMFIGEVAHVSAEITYTSKHSVEVQVNVLAENIVTGAKKVTNKATLWYVPLSLQNVDKIIEVPPIEYSSPEREEAGKKRYEAQKLERLEDKVRNGEIIMSVSLPEPYTVVCSQSSLIHLVGPSDCTLHGFVHGGVTMKLMDEVAGIVAARHCKTNIVTASVDAINFHRKIKKGCVITVSGRMTFTSNKSMEI | soluble
MGSDKIHHHHHHMTEKVSRFPGVFPLIVIGVPGSVDKTHKKLAFAPNLNRWRDIDVEKYFKVFEVYLENDANLAALAEMMRNKHFGDRKNIVYILVREGIGGGIIIEGKLYKGSFNAAGEIGHMKMYDRGPCFCGRVGCWEANTSISHCVRQYEKKKPLPGNTMYEKFETLCRIYEEDPLAKEVLDEFTGILIDGIVNLVNILSPEIVIVGGEGVFLPESVFEVIVSETRRQVHPMDKEVSVEKGSLSNKEVVLEGTSILSSMMISERLV | not soluble
LVLEGGGMRGVFTCGVLDYLMDHDIRFPYAIGVSAGACNGLSYASRQRGRAKFSNIDLLEKYNYIGLKHLLRKRNILDFDLLFNEFPEHILPYDYDTYFASPERFVMVTTNCMTGEANYFEEKRDKSRVIDIVRASSSLPFVCPVTYVDGVPMLDGGIVDSIPLQRAIADGYTRNVVILTRNRGYRKDTKDIRIPSFVYRKYPKLREALSRRCAVYNEQLEMVEQMEDEGKIIVIRPQKPVMVDRIERDVQKLTEFYEEGYDCARNLFEF | not soluble
MSLTPPRSLLHALKPFLEAGADKEALVFGAHRISFGDMAGHAAALAEVLRSKGVQKGDRVAALFPPRPEAILSLLACWLIGATWMGINPRYQRREQAQILADAGVKVLMSMTRIGKRDLEDDLASHETDLGFSVLRFAPAFAPAALPEKLPYDEVLRRWREATETLEPDSPSVVIYTSGSTGKPKGALITHAGLAFRSHTLHIDRFNLPAPTQLIDLPVNHIGALASGIGVAMASGGKMILSEQFDPGVTLRTAFAEKLAIISGVPAMLARLVEHPDFATSDLSSVKAISWGAGPINEAVLRKLLNATDALFSQQYGMTESNGPIVFTPPTRDVEVLLNTTGKPDPRLELRIADESGQPLPDGEEGEVQIRHPHPFAGYLGNAEASAAAFTADGFLHTGDLAMVREDGYLVFCGRSKEMYKSGGFNVYPREIEIALEAHPAIRAAAVLGVDDEQWGQVGHAFVELASPLTSDDITGWCKARLADFKVPKRVSVIDAMPRTPVDKVDRMQLAELAARGEGHHHHHH | soluble
